Results taken from patent US9243032B2, “Compositions for treatment of neurodegenerative diseases” (Ramot at Tel-Aviv University Ltd., priority 2009, dated 2016).
Values joined by “and” are separate entries in the source; they are usually repeats but may differ in a detail not shown here. Equal entries are not always repeated. Each block holds one compound with its values, some of them ahead of it. Square brackets hold non-standard residues; d marks the D form. Ends that are not written are not given here. Peptide text beside a SMILES is read from it.

Tests used:
[1] = In vitro peptide stability in mouse brain homogenate; assay type: in vitro ADME; details: fresh mouse brain homogenate, 2 hours, 37° C., HPLC, FIGS. 6A-C
Protocol: In Vitro Assay of Peptide Stability: Peptides were dissolved to form a 1 mM solution in 50 μM Tris buffer (PH=7.6). 120 μl of the peptide solution was diluted into a 10% freshly-taken mouse brain homogenate without the cerebellum (in 1×Tris buffer and 0.5% Triton X-100). A mixture containing 20% peptide solution and 80% mouse brain homogenate was incubated at 37° C. with delicate shaking for 2 hours. The enzyme reaction was stopped by the addition of 0.1 M HCL solution, followed by denaturation of the protein using CH3OH and incubation at 20° C. for 1 hour. The precipitated proteins were centrifuged at 29,000×g for 20 minutes at 4° C. and the supernatant containing the peptide was concentrated under vacuum and separated using a C18 HPLC column. The area of the peak (UV absorbance at 280 nm) corresponding to the intact peptide was compared with an equivalent sample incubated in 50 μM Tris buffer.
Later, the stability of peptide β-syn 36 and the modified retro-inverso peptide was compared using fresh mouse brain homogenate to model serum degradation for a period of 2 hours.

[2] = test system: flies expressing A53T α-syn in their nervous system; assay type: in vivo, Drosophila
Protocol: Fly Keeping: Flies were reared on standard corneal-molasses medium and were kept at 25° C. Male flies were crossed with virgin females collected no longer than 8 hours or 18 hours after eclosion at 25° C. or 18° C. respectively. Adult offspring (F1) from the crosses were collected up to 9 days after the beginning of their eclosion at 25° C. in order to avoid offspring from the next generation (F2).
Fly Crossing: Male flies carrying the driver elav-Ga14 on their X chromosome were crossed with females carrying the A53T α-syn transgene located on their X chromosome under the UAS promoter. […] Offspring of male flies carrying the driver elav-Ga14 crossed with WT OR females served as control.
Special Fly Feeding: β-syn retro-inverso peptide was added to standard corneal-molasses medium at a concentration of 0.75 mg/ml. The peptide was mixed thoroughly into the medium at 40° C. and the mixture was aliquot into rearing vials. The vials were kept at 4° C. until use. Crosses were performed either on regular Drosophila medium (control) or on medium supplemented with the peptide. Animals were fed on the appropriate medium from the beginning of the larval stage. After eclosion, offspring were transferred into a new vial that was pre-dripped with 0.75 mg/ml peptide solution every second day.
Locomotive (Climbing) Assay: Test tubes, each containing 10 flies, were tapped gently on the table and were let stand for 20 seconds. The percent of flies which climbed about one centimeter from the bottom of the test tube was then calculated over time. Each class had five independent test tube repeats.
In order to assess the effect of the peptide on α-syn in the living organism, a Drosophila model of PD was used. The transgenic flies over express the mutated […] α-syn in their nervous system, via the Gal4-UAS system. A common behavioral phenotype of these flies is defective locomotion; while normal flies tend to climb up along the tube, these flies remain at the bottom (Ueda et al., (1993) Proc Natl Acad Sci USA 90(23), 11282-11286). […] This cross was performed either on regular Drosophila medium or on medium supplemented with 0.75 mg/mL β-syn 36 retro-inverso peptide.

[3] = biological target: T1, α-syn monomers (Homo sapiens, UniProt P37840); test: Fluorescence anisotropy affinity study; assay type: binding; details: FIG. 5B, read-out: affinity constant (Kd) towards α-syn monomers
T1 construct: made in house; host or cells: E. coli BL21, pT7-7 vector
Protocol: Fluorescence Anisotropy Studies: β-syn 36 in which tyrosine was substituted with tryptophan (SEQ ID NO: 22—[…]) was dissolved to a concentration of 54 μM. The solution was immediately mixed with α-syn monomer stock solution to varying final concentrations. The peptide polarization measurements were carried out using an ISS K2 fluorometer. The solutions were excited at 280 nm and emission was monitored at 350 nm. For each single point, at least five measurements were collected and their average values were used for the calculation. All experiments were performed using ultra pure water.
To determine the affinity of the interaction between β-syn 36 and α-syn monomers, a peptide containing tryptophan instead of tyrosine at position 39 within β-syn was used, exploiting its intrinsic fluorescence in a fluorescence anisotropy assay. […] Increasing amount of α-syn monomers were titrated into a solution of β-syn 36 peptide and anisotropy was determined (FIG. 5B). The affinity constant was calculated as ˜1 μM.

[4] = biological target: T2, α-syn (Homo sapiens, UniProt P37840); test: ThT fluorescence assay of α-syn fibril formation; assay type: biochemical; details: for dose-dependent inhibition of α-syn aggregation: FIG. 3C; for inhibition of fibril formation: as summarised in Example 4
T2 construct: made in house; host or cells: E. coli BL21, pT7-7 vector
Protocol: ThT Florescence Assay: α-syn was dissolved to a concentration of 200 μM in 100 mM Tris buffer (pH 7.4). In order to obtain the monomeric fraction, the protein was filtered through a 100 kDa centricon. Since α-syn is not a globular protein but a natively unfolded one, only monomers and some dimers pass through the filter. […] The samples were incubated at 37° C. with agitation of 850 RPM as described by Tsigelny et al. (Tsigelny et al., 2007 Febs J 274(7), 1862-1877) and the fibrillogenesis rate was followed by thioflavin T (ThT) fluorescence assay (excitation at 450 nm, 2.5 nm slit, and emission at 480 nm, 5 nm slit), after three days of incubation. ThT was added to a 500-fold diluted sample and measured using a Jobin Yvon Horiba Fluoromax 3 fluorimeter.
In order to examine the inhibitory effect of the peptides on α-syn fibril formation, the Thioflavin-T (ThT) binding assay was used. This method provides quantitative information on amyloid fibril growth. α-syn was incubated for several days at 37° C. with vigorous shaking to allow the formation of amyloid fibrils with or without the different β-syn-derived peptides. The fibrillization process was monitored for three days.

[5] = biological target: T2, α-syn; test: Transmission electron microscopy of α-syn fibrils; assay type: biochemical; details: samples from the ThT experiment; FIGS. 3D-K
Protocol: Transmission Electron Microscopy: Samples (10 μL) from the α-syn ThT fluorescence assay (with and without inhibitors) were placed on 400-mesh copper grids covered by carbon-stabilized Formvar film (SPI Supplies, West Chester, Pa.). After 1.5 minutes, excess fluid was removed, and the grids were negatively stained with 10 μl of 2% uranyl acetate solution for 2 minutes. Finally, excess fluid was removed and the samples were viewed in a JEOL 1200EX electron microscope operating at 80 kV.
Transmission electron microscopy (TEM) analysis was performed on samples of α-syn with and without the β-syn inhibitors.

[6] = biological target: T2, α-syn; test: Soluble oligomer formation, Western blot; assay type: biochemical; details: soluble fraction, ~20-24 hours incubation, FIG. 4B
Protocol: Determination of Soluble Oligomer Formation: Monomeric α-syn was dissolved to a concentration of 200 μM in 100 mM Tris buffer (pH 7.4) and was immediately mixed with or without different β-syn derived peptides at a 1:1 ration to a final concentration of 100 μM, as was described above for the aggregation assay. […], 10 μl of the protein were centrifuged at 13000 RPM for 10 minutes, the supernatant was collected and electrophoresed in acrylamide gel using native loading buffer without β-mercaptoethanol and boiling. The gel was washed 3 times in ddH2O and samples were then transferred to the nitrocellulose membrane using semi-dry blot technique applying 323 mA current for 30 minutes. The membrane was blocked for 1 hour using 5% milk diluted in TBS (0.3% Tween) while shaking. Anti α-syn diluted 1:1000 (Santa Cruz Biotechnology) in 5% milk in TBS (0.3% tween) was added to the membrane for 2 hours incubation followed by several washes with TBS (0.3% Tween). Rabbit anti mouse IgG (Fc specific)-HRP conjugated antibody diluted 1:5000 in 5% milk diluted in TBS (0.3% Tween) was administrated for 1 hour at RT while shaking. Blots were developed after thorough TBS (0.3% Tween) washes using Enhanced Chemiluminescence System (ECL) according to the manufacturer's instructions.
To examine the ability of the peptides to inhibit the early stage of aggregation, soluble fractions of α-syn were collected after incubation with the β-syn peptides. The reaction mixtures were separated using SDS-PAGE followed by western blot analysis using a specific anti α-syn antibody (Santa-Cruz) (FIG. 4A).

Compound: CC(C)C[C@@H](NC(=O)[C@@H](Cc1ccc(O)cc1)NC(=O)[C@H](NC(=O)CNC(=O)[C@@H](CO)NC(=O)[C@@H](CCCCN)NC(=O)[C@H](NC(=O)[C@H](N)CCCNC(=N)N)[C@H](C)O)C(C)C)C(=O)N[C@@H](C(=O)NCC(=O)O)C(C)C [β-syn 36 retro-inverso peptide] (H-[dR][dT][dK][dS]G[dV][dY][dL][dV]G-OH)
- stability in brain homogenate [1]: elevation in stability
- stability in brain homogenate ([1]; listed as retro-inverso analogue): stable in human serum
- increase in climbing compared to untreated group ([2]; A53T α-syn flies, day 27): 30%
- percent of flies climbing ([2]; A53T α-syn flies, medium with 0.75 mg/mL peptide, day 27): 66%
- effect on locomotion of control flies ([2]; control flies on medium with peptide): no significant effect
- phenotypic recovery of A53T α-syn flies ([2]; medium with 0.75 mg/mL peptide): great phenotypic recovery

- Kd [3]: ~1000 nM and 1000 nM
Compound: CC(C)C[C@H](NC(=O)[C@@H](NC(=O)CN)C(C)C)C(=O)N[C@@H](Cc1c[nH]c2ccccc12)C(=O)N[C@H](C(=O)NCC(=O)N[C@@H](CO)C(=O)N[C@@H](CCCCN)C(=O)N[C@H](C(=O)N[C@@H](CCCNC(=N)N)C(=O)O)[C@@H](C)O)C(C)C (H-GVLWVGSKTR-OH; N-terminus and C-terminus assumed)

- dose-dependent inhibition of α-syn aggregation ([4]; ThT, peptide excess 5:1 (molar ratio)): less efficient
- dose-dependent inhibition of α-syn aggregation ([4]; ThT, peptide excess 10:1 (molar ratio)): still efficient
- inhibition of α-syn aggregation, kinetic analysis ([4]; ThT, β-syn 36 compared with β-syn 39, FIG. 3B): better inhibition
Compound: GVLYVGSKTR [β-syn 36, decamer, aa 36-45 of β-syn, natural L-amino acids]
- inhibition of fibril formation [4]: inhibited almost completely the formation of both aggregation types
- fibril formation by TEM [5]: almost completely inhibited fibril formation
- inhibition of oligomer formation [6]: inhibited almost completely the formation of both aggregation types

- inhibition of fibril formation [4]: inhibited the fibrils
- inhibition of oligomer formation [6]: not the oligomers formation
Compound: VLYVGSKTRE [β-syn 37, decamer, aa 37-46 of β-syn]

- inhibition of fibril formation [4]: not fibril formation
- inhibition of oligomer formation [6]: inhibited oligomers
Compound: AATGLVKREE [β-syn 78, decamer, aa 78-87 of β-syn]

- inhibition of fibril formation [4]: inhibited the fibrils
- inhibition of oligomer formation [6]: not the oligomers formation
Compound: SMAKEGV [β-syn 6short, seven amino acids peptide, aa 9-15 of β-syn, positive control selected by Windisch et al, reference compound]

- inhibition effect on α-syn aggregation ([4]; ThT, FIG. 7F): no inhibition effect
Compound: YVGSKTR ([dY][dV]G[dS][dK][dT][dR]) [β-syn 36D short, β-syn 36D lacking amino acids G, V, L]
